Assay results reported in patent US20130273068A1 (published 2013).

Target: T1, human ADP-ribosyl cyclase 2 (BST1; CD157) (human, UniProt Q10588 33-293)
T1 construct: Endogenous BST1 on human cells (A549, H226, U937, AML blasts); also called Bone marrow stromal antigen 1; cell-surface human BST1
T1 sequence: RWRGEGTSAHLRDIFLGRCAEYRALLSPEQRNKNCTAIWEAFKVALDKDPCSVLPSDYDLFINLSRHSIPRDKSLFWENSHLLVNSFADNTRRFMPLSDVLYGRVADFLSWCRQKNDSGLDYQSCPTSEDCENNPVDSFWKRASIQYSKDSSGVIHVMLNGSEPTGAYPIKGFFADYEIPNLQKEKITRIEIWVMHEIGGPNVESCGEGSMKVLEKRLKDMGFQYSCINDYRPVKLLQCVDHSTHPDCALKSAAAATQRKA
Test: flow cytometry on A549 and H226 cells
Protocol: The specificity of antibodies against the BST1 selected in Example 2 was tested by flow cytometry. To test the ability of the antibodies to bind to the cell surface BST1 protein, the antibodies were incubated with the BST1-expressing cells, A549 and H226, from human lung adenocarcinoma and human lung squamous carcinoma, respectively. Cells were washed in FACS buffer (DPBS, 2% FBS), centrifuged and resuspended in […] of the diluted primary BST1 antibody (also diluted in FACS buffer). The antibody-A549 complex was incubated on ice for 60 min and then washed twice with FACS buffer as described above. The cell-antibody pellet was resuspended in 100 μl of the diluted secondary antibody (also diluted in FACS buffer) and incubated on ice for 60 min on ice. The pellet was washed as before and resuspended in […] FACS buffer. The samples were loaded onto the BD FACScanto II flow sytometer and the data analyzed using the BD FACSdiva software.

binding result: binds
B1: BST1_A3 (Fab, V domains shown)
VH: QVQLQQSRAELVMPGASVKMSCKTSGYTFSDYWVHWVRQRPGQGLEWIGAIDGSDTFNDYSQKFKGRATLTVDESSSTVYMQLSSLTSEDSAVYYCARGGLLQYWGQGTTLTVSS
VL: DIQLTQSPASLSASVGETVTITCRASENIYSYLAWYQQKQGKSPQLLVYNTKTLGEGVPSRFSGSGSGTQFSLKINSLQPEDFGSYYCQHHYGTPFTFGSGTKLEIKR
